Assay results from paper PMC10279719 (2023).
One block for each binder: values may come before it.

Assays:
Assay in all cases: SPR
[1] = target: T1, PEAK2^IDR1 phosphorylated by Src (human, UniProt Q86YV5 802-1406, treated with Src kinase in vitro, sites not stated; phosphorylated at the tandem site 14-3-3 motif (RAA(pS)SP) as purified; biotin (EZ-Link NHS-PEG4-Biotin))
T1 chain: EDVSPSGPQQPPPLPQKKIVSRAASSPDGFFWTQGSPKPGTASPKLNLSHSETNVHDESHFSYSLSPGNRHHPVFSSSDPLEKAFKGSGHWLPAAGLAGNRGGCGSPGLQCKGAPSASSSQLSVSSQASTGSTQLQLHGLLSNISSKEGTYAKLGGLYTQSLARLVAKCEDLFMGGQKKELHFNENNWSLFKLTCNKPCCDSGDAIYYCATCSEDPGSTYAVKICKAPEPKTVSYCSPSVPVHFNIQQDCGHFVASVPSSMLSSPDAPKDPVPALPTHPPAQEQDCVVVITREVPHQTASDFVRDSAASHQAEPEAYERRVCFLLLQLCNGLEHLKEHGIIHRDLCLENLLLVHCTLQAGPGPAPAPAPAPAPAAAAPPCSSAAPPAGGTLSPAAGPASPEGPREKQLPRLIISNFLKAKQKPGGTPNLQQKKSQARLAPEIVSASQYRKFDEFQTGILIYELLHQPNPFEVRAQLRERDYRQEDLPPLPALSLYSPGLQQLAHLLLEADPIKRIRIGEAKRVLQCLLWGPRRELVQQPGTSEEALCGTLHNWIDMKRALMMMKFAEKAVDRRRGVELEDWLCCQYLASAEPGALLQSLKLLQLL

[2] = target: T2, PEAK3^FL from insect cells, phosphorylated by Src (human, UniProt Q6ZS72 1-473, phosphotyrosine at 24 (by Src in vitro, MS/MS); phosphoserine at 69; biotin (EZ-Link NHS-PEG4-Biotin))
T2 chain: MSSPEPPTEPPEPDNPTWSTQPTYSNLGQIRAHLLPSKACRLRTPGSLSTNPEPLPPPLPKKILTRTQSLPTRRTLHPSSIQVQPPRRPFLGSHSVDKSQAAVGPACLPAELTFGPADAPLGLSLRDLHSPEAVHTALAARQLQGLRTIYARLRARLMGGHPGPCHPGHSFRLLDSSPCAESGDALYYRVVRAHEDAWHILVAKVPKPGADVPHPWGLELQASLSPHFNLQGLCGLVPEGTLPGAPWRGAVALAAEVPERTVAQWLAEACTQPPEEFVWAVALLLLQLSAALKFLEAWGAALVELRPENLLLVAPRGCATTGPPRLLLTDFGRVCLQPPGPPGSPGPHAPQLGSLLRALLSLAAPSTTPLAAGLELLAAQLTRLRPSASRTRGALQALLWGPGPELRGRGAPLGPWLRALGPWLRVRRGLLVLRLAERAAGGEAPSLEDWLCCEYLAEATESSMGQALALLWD

[3] = target: T3, full length PEAK3 from insect cells (PEAK3^FL, S69 phosphorylated) (human, UniProt Q6ZS72 1-473, phosphoserine at 69; biotin (EZ-Link NHS-PEG4-Biotin) where immobilised for SPR)
T3 chain: T2 chain

[4] = target: T4, PEAK2^IDR1 (human PEAK2 residues 802–1406) (human, UniProt Q86YV5 802-1406, phosphorylated at the tandem site 14-3-3 motif (RAA(pS)SP) as purified from insect cells; biotin (EZ-Link NHS-PEG4-Biotin) where immobilised for SPR)
T4 chain: T1 chain

[5] = target: T5, PEAK1^IDR1 phosphorylated by Src (human, UniProt Q9H792 1082-1746, phosphotyrosine at 1107 (by Src in vitro, MS/MS); biotin (EZ-Link NHS-PEG4-Biotin))
T5 chain: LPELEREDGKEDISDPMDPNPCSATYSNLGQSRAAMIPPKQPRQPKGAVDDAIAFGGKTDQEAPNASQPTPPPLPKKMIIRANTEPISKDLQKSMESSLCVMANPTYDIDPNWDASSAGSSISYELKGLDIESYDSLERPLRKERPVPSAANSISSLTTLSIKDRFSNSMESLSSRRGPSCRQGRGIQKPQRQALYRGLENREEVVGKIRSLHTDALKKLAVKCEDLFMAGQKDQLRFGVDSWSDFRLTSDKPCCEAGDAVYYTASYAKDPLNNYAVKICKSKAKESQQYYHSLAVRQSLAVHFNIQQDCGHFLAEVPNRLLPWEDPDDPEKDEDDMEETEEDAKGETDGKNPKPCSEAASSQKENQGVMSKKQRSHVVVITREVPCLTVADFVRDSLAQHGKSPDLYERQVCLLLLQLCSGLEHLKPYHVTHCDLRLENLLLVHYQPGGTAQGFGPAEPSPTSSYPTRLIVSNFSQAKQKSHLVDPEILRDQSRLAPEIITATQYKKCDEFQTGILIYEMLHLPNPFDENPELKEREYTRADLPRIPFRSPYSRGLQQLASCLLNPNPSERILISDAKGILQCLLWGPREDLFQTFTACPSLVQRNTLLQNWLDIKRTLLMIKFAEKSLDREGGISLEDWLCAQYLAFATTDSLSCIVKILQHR

Kd [1]: 2.1 µM
B1: full length CrkII, monomer (CrkII^FL monomer) (natural protein)
chain: MAGNFDSEERSSWYWGRLSRQEAVALLQGQRHGVFLVRDSSTSPGDYVLSVSENSRVSHYIINSSGPRPPVPPSPAQPPPGVSPSRLRIGDQEFDSLPALLEFYKIHYLDTTTLIEPVSRSRQGSGVILRQEEAEYVRALFDFNGNDEEDLPFKKGDILRIRDKPEEQWWNAEDSEGKRGMIPVPYVEKYRPASASVSALIGGNQEGSHPQPLGGPEPGPYAQPSVNTPLPNLQNGPIYARVIQKRVPNAYDKTALALEVGELVKVTKINVSGQWEGECNGKRGHFPFTHVRLLDQQNPDEDFS
modifications: biotin (EZ-Link NHS-PEG4-Biotin) where immobilised for SPR

Kd [1]: 1.4 µM
B2: full length CrkII, dimer (CrkII^FL dimer) (natural protein)
chain: B1 chain
modifications: biotin (EZ-Link NHS-PEG4-Biotin) where immobilised for SPR

Kd [2]: < 1 µM
B3: 14-3-3γ (natural protein)
chain: MVDREQLVQKARLAEQAERYDDMAAAMKNVTELNEPLSNEERNLLSVAYKNVVGARRSSWRVISSIEQKTSADGNEKKIEMVRAYREKIEKELEAVCQDVLSLLDNYLIKNCSETQYESKVFYLKMKGDYYRYLAEVATGEKRATVVESSEKAYSEAHEISKEHMQPTHPIRLGLALNYSVFYYEIQNAPEQACHLAKTAFDDAIAELDTLNEDSYKDSTLIMQLLRDNLTLWTSDQQDDDGGEGNN

Kd [3]: 3.9 µM | Kd [2]: 6.8 µM | Kd [4]: 4.8 µM
B4: CrkII NSH3 domain (CrkII^NSH3, residues 134–191) (domain or fragment)
chain: AEYVRALFDFNGNDEEDLPFKKGDILRIRDKPEEQWWNAEDSEGKRGMIPVPYVEKYR

Kd [1]: 20.7 µM | Kd [2]: 48.5 µM | Kd [5]: 12.5 µM
B5: CrkII SH2 domain (CrkII^SH2, residues 6–120) (domain or fragment)
chain: DSEERSSWYWGRLSRQEAVALLQGQRHGVFLVRDSSTSPGDYVLSVSENSRVSHYIINSSGPRPPVPPSPAQPPPGVSPSRLRIGDQEFDSLPALLEFYKIHYLDTTTLIEPVSR
modifications: biotin (EZ-Link NHS-PEG4-Biotin) where immobilised for SPR
